Assay results reported in article PMC4699771.

System: T1, YhaJ (Escherichia coli EHEC O157:H7? EDL933 (amplified from TUV93-0 genomic DNA)), ORF:62819c23
T1 sequence: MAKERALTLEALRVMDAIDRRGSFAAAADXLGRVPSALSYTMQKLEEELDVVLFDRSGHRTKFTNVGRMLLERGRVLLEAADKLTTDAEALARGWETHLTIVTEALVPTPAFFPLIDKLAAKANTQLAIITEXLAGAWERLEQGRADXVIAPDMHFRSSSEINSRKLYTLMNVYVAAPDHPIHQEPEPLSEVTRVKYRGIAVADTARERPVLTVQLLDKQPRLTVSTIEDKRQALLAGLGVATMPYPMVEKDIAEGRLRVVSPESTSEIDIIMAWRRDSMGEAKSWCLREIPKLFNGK
Assay: EMSA
Conditions: EMSA: Roche DIG Gel Shift Kit 2nd Gen (buffer, salt and pH not stated), 30 min at 30 C, YhaJ 0-1 uM, DIG probe diluted to 0.4 ng/ul, 6% DNA retardation gel

Sequence | binding
CCTGCTGTAGAACTGCAATTTGCTCTATAAGCTGAATGTATGGACTTGTTGTATGTGAATTATTTTCCATATTCATAATAAATAATCTCCGCATGCTTTAATATTTTAAGCTATTAGCGACCTTATCAGGAAGGACCAACAATTAATCAAATGATATAAATTATGTGAGATAACGTTTATCTATCAAATTAGGACACATCTATTTCATCAAACAACCACCTTAAAATG (double strand) [LEE1 P2 promoter probe] | no binding
TCGCTCAATATTTTGTAGGGCTTATTATTTTTTTCCGAGCCGCATCAAGGCGATATGCGGTCTACGTTTTTGCAGGCGAGTTATTAGAATAAAGAAATGATACGCGCGAGGTCAGAGAAAATCTTCACAATCAAGACTTTGAAATAACGGAGATGGATAAGAATTTTCTACTAAATTAATCGCAAGAGAATATTCACTCTCTATTTGCGGCAGATCACAAAAAAAAGGTGCACATTTGTGCACCCAAGGATGAAAGCTGACAGCAATGTCAGCCGCAGACCACTTTAATGGCCAGTCCGC (double strand) [pyhaO promoter probe] | binds
